Patent US20220242939A1 (BIOARCTIC, published 2022)
Non-standard residues stand in square brackets, D forms with d. No end group written: not given here. Ahx = NCCCCCC(=O)O

Key:
[1] = target: 36A12, monoclonal anti-A199 antibody; assay: inhibition ELISA; antibody at 0.05 ug/ml pre-incubated with the peptide in solution (4-fold dilutions from 10000 ng/ml), then on a plate coated with A199-BSA peptide; blank reduced OD 405 nm
Procedure: (§1) 0.5 μg/ml solution of N-terminal neo-epitope peptide A199 (SEQ ID NO:51) conjugated to BSA was prepared by dilution in PBS. 50 μl/well were added to an ELISA half-area 96 well microtiter plate, the plate was sealed with adhesive sealer and incubated over night at 4° C. After discarding the solution, the plates were blocked with protein-free blocking solution (Pierce) (150 μl/well) at room temperature for 90 min with shaking (900 rpm). The blocked plate was washed four times with washing buffer containing 0.28 mM NaH₂PO₄, 2.5 mM Na₂HPO₄, 150 mM NaCl, 0.1% TWEEN®-20 and 0.0075% Kathon CG.
(§2) Serial dilutions of each synthetic ApoE peptide were prepared by 4-fold dilution starting from 10000 ng/ml in 96 well storage plates (30 μl final volume). Each purified monoclonal antibody to be tested was added (30 μl) to the serial dilutions of each of the synthetic ApoE peptides at a final concentration of 0.05 μg/ml per well. Samples were pre-incubated for 45 min at room temperature with shaking (900 rpm).
(§3) The pre-incubated samples were transferred (50 μl/well) to the blocked ELISA plates, and plates were incubated for 10 min at room temperature without shaking. Plates were washed as described above. Alkaline phosphatase conjugated anti-mouse IgG detection antibody (Mabtech, cat. no. 3310-4) was diluted 1:1000 and added to each plate (50 μl/well). The plate was sealed and incubated with shaking (900 rpm) for 45 min at room temperature and subsequently washed as described above. Alkaline phosphatase substrate (50 μl/well) was added to the plate and the optical density was read every 10 min at a wavelength of 405 nm for up to 120 min. The IC50 values were determined from a log inhibitor concentration response curve (FIG. 29).

[2] = target: 38G9, monoclonal anti-A199 antibody; assay: as above
Chain of 38G9, monoclonal anti-A199 antibody (VH, as listed by the source, chain 1 of 2): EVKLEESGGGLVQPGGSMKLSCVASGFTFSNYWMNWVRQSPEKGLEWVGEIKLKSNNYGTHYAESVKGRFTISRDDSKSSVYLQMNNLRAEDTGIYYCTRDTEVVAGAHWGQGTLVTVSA
Chain of 38G9, monoclonal anti-A199 antibody (VL, as listed by the source, chain 2 of 2): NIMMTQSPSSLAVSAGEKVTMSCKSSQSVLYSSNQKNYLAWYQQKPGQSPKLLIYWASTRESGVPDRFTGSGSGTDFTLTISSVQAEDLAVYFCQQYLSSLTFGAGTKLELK
Procedure: as §1, §2, §3

[3] = target: 17G4, recombinant IgG2c antibody; assay: inhibition ELISA 2nd protocol: antigen in solution varied, antibody 17G4, plate coated with G200-BSA peptide
Chain of 17G4, recombinant IgG2c antibody (VH, as listed by the source, chain 1 of 2): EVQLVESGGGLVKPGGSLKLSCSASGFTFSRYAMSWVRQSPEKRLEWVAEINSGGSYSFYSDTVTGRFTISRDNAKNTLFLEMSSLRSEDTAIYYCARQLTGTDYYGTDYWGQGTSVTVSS
Chain of 17G4, recombinant IgG2c antibody (VL, as listed by the source, chain 2 of 2): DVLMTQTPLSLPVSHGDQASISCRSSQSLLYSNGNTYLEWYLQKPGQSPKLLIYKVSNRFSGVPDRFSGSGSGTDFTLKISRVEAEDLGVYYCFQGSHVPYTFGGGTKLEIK
Procedure: as §3, with “for 25” for “for 10”, “every 15” for “every 10”, “(FIG. 17).” for “(FIG. 29).”
(§4) In addition, a second inhibition ELISA with the ApoE peptides conjugated to BSA was run, in which the starting concentration of the antigens in solution was increased 10-fold. i.e. the starting concentration of the N-terminal neo-epitope of synthetic ApoE peptides conjugated to BSA and starting at amino acid L198 (SEQ ID NO:52), A199 (SEQ ID NO:51) or G200 (SEQ ID NO:50), or to BSA-conjugated negative control peptide (SEQ ID NO:53), was 10000 ng/ml. […] IC50 values were determined from a log inhibitor concentration response curve (FIG. 20).

[4] = target: 28F2, recombinant IgG2c antibody; assay: inhibition ELISA 2nd protocol: antigen in solution varied, antibody 28F2, plate coated with G200-BSA peptide
Chain of 28F2, recombinant IgG2c antibody (VH, as listed by the source, chain 1 of 2): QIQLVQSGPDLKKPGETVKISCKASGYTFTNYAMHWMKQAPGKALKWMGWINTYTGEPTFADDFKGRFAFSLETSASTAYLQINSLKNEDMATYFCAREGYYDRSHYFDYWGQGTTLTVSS
Chain of 28F2, recombinant IgG2c antibody (VL, as listed by the source, chain 2 of 2): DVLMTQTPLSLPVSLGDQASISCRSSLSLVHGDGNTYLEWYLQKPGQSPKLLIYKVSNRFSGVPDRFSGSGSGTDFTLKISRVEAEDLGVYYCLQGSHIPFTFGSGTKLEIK
Procedure: as §2, with “[…]” for “Serial”, “peptide, recombinant C-terminal ApoE fragment G200-HIS and full-length ApoE4” for “peptide”, “1000” for “10000”, “recombinant” for “purified monoclonal”, “peptides, G200-HIS or full-length ApoE4” for “peptides”
as §3, with “for 25” for “for 10”, “every 15” for “every 10”, “(FIG. 17). […]” for “(FIG. 29).”

[5] = target: 7C7, recombinant IgG2c antibody; assay: inhibition ELISA 2nd protocol: antigen in solution varied, antibody 7C7, plate coated with G200-BSA peptide
Chain of 7C7, recombinant IgG2c antibody (VH, as listed by the source, chain 1 of 2): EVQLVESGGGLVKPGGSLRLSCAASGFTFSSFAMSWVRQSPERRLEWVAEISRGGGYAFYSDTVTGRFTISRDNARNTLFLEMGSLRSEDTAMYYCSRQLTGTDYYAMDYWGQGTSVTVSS
Chain of 7C7, recombinant IgG2c antibody (VL, as listed by the source, chain 2 of 2): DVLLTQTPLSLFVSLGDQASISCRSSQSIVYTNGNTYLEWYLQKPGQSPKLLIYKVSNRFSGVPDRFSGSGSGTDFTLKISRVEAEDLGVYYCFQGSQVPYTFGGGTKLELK
Procedure: as §3, with “for 25” for “for 10”, “every 15” for “every 10”, “(FIG. 17).” for “(FIG. 29).”
as §4

[6] = target: 23D5, recombinant IgG2c antibody; assay: inhibition ELISA: antigen in solution varied, antibody 23D5 at 0.05 µg/ml, plate coated with G200-BSA peptide
Chain of 23D5, recombinant IgG2c antibody (VH, as listed by the source, chain 1 of 2): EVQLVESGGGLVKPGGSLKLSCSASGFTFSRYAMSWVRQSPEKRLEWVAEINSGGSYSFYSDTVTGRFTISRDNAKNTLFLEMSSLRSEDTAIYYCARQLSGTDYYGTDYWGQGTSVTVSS
Procedure: as §3, with “for 25” for “for 10”, “every 15” for “every 10”, “(FIG. 17).” for “(FIG. 29).”

[7] = target: T1, 7B10, recombinant IgG2c antibody; assay: inhibition ELISA: antigen in solution varied, antibody 7B10 at 0.05 µg/ml, plate coated with G200-BSA peptide
T1 construct: also called 7610
T1 sequence (VH, as listed by the source, chain 1 of 2): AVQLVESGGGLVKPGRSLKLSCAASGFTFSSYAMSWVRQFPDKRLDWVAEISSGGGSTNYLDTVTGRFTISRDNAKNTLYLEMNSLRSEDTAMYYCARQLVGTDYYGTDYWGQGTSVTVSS
T1 sequence (VL, as listed by the source, chain 2 of 2): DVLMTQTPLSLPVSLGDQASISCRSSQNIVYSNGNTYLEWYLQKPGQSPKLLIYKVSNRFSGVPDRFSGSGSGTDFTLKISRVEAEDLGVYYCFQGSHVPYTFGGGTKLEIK
Procedure: as §3, with “for 25” for “for 10”, “every 15” for “every 10”, “(FIG. 17).” for “(FIG. 29).”

[8] = target: 28F2, recombinant IgG2c antibody; assay: inhibition ELISA: antigen in solution varied, antibody 28F2 at 0.05 µg/ml, plate coated with G200-BSA peptide
Procedure: as §2, with “[…]” for “Serial”, “peptide, recombinant C-terminal ApoE fragment G200-HIS and full-length ApoE4” for “peptide”, “1000” for “10000”, “recombinant” for “purified monoclonal”, “peptides, G200-HIS or full-length ApoE4” for “peptides”
as §3, with “for 25” for “for 10”, “every 15” for “every 10”, “(FIG. 17).” for “(FIG. 29).”

[9] = target: 23D5, recombinant IgG2c antibody; assay: inhibition ELISA 2nd protocol: antigen in solution varied, antibody 23D5, plate coated with G200-BSA peptide
Procedure: as §3, with “for 25” for “for 10”, “every 15” for “every 10”, “(FIG. 17).” for “(FIG. 29).”
as §4

[10] = target: T1, 7B10, recombinant IgG2c antibody; assay: inhibition ELISA 2nd protocol: antigen in solution varied, antibody 7B10, plate coated with G200-BSA peptide
Procedure: as §2, with “[…]” for “Serial”, “peptide, recombinant C-terminal ApoE fragment G200-HIS and full-length ApoE4” for “peptide”, “1000” for “10000”, “recombinant” for “purified monoclonal”, “peptides, G200-HIS or full-length ApoE4” for “peptides”
as §3, with “for 25” for “for 10”, “every 15” for “every 10”, “(FIG. 17). […]” for “(FIG. 29).”

[11] = target: 7C7, recombinant IgG2c antibody; assay: inhibition ELISA: antigen in solution varied, antibody 7C7 at 0.05 µg/ml, plate coated with G200-BSA peptide
Procedure: as §3, with “for 25” for “for 10”, “every 15” for “every 10”, “(FIG. 17).” for “(FIG. 29).”

[12] = target: 17G4, recombinant IgG2c antibody; assay: inhibition ELISA: antigen in solution varied, antibody 17G4 at 0.05 µg/ml, plate coated with G200-BSA peptide
Procedure: as §3, with “for 25” for “for 10”, “every 15” for “every 10”, “(FIG. 17).” for “(FIG. 29).”

[13] = target: 6F4, monoclonal anti-L198 antibody; assay: inhibition ELISA; antibody at 0.05 ug/ml pre-incubated with the peptide in solution (4-fold dilutions from 10000 ng/ml), then on a plate coated with L198-BSA peptide; blank reduced OD 405 nm
Chain of 6F4, monoclonal anti-L198 antibody (VH, as listed by the source, chain 1 of 2): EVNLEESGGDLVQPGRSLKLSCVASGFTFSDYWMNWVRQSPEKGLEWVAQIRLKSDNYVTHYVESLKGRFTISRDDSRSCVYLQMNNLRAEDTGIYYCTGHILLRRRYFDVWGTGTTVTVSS
Chain of 6F4, monoclonal anti-L198 antibody (VL, as listed by the source, chain 2 of 2): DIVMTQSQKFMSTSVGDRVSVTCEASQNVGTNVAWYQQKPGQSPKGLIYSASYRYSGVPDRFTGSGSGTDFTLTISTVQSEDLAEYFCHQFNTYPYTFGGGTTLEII
Procedure: as §1, with “L198” for “A199”, “NO:52)” for “NO:51)”
as §2, with “recombinant” for “purified monoclonal”
as §3, with “25).” for “29).”

[14] = target: 15F8, monoclonal anti-L198 antibody; assay: as above
Chain of 15F8, monoclonal anti-L198 antibody (VH, as listed by the source, chain 1 of 2): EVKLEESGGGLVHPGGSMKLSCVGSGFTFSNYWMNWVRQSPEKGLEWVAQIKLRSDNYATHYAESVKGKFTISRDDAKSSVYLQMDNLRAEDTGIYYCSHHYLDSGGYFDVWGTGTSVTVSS
Chain of 15F8, monoclonal anti-L198 antibody (VL, as listed by the source, chain 2 of 2): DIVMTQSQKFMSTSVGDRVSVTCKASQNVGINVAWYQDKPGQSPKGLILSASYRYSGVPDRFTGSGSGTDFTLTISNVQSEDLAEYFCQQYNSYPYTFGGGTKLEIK
Procedure: as §1, with “L198” for “A199”, “NO:52)” for “NO:51)”
as §2, with “recombinant” for “purified monoclonal”
as §3, with “25).” for “29).”

Chain of 36A12, monoclonal anti-A199 antibody (VH, as listed by the source, chain 1 of 2): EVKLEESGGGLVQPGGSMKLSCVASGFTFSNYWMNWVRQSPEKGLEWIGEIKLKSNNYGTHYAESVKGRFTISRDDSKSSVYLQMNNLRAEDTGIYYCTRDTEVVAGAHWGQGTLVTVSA
Chain of 36A12, monoclonal anti-A199 antibody (VL, as listed by the source, chain 2 of 2): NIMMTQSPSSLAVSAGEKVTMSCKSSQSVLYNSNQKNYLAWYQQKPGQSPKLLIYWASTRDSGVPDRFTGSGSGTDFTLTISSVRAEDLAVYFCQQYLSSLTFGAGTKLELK

binding result [1]: no binding (tested: 10000 ng/ml) | binding result [2]: no binding (tested: 10000 ng/ml) | IC50 [3]: 5.8 ng/mL | IC50 [4]: 3.7 ng/mL | IC50 [5]: 6.3 ng/mL | IC50 [6]: 2.8 ng/mL | IC50 [7]: 2.2 ng/mL | IC50 [8]: 3.2 ng/mL | IC50 [9]: 3.8 ng/mL | IC50 [10]: 5.8 ng/mL | IC50 [11]: 3.1 ng/mL | IC50 [12]: 2.9 ng/mL | binding result [13]: no binding (tested: 10000 ng/ml) | binding result [14]: no binding (tested: 10000 ng/ml)
B1: G200 N-terminal neo-epitope peptide GQPLQE-Acp-C (SEQ ID NO:50) conjugated to BSA (peptide)
peptide: GQPLQE[Ahx]C
modifications: not fully specified (residue 8); printed as GQPLQE-Acp-C; also: C-terminal Cys conjugated to BSA carrier
notes: also called G200-BSA peptide; G200-peptide
